Assay results reported in patent US20190083585.

How the values were obtained:
[1] = test system: fluorescently quenched α-gliadin hexapeptide analogue QXL520-PQPQLP-K(5-FAM)-NH2
[2] = test system: T1, immunodominant α9-gliadin peptide QLQPFPQPQLPY
T1 sequence: QLQPFPQPQLPY

Sequence of glutamine-specific endoprotease EP-B2 (native) (chain, as listed by the source): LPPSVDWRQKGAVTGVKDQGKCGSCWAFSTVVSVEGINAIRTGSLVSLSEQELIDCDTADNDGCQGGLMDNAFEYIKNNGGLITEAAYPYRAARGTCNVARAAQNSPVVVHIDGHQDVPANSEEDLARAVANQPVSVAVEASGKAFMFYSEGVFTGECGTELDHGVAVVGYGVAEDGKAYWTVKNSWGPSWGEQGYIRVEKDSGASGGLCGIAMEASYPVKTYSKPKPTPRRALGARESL

glutamine-specific endoprotease EP-B2 (native)
activity (Suc-AQP-pNA): no activity | activity (Suc-APQ-pNA): no activity | activity (Suc-APE-pNA): no activity | activity at pH 4 [1]: only very low levels of activity were detected | activity (Suc-APR-pNA): no activity

prolyl endopeptidase SC PEP (native)
catalytic activity at pH 4 (Suc-AQP-pNA): did not exhibit any significant activity | catalytic efficiency at pH 7 (Suc-AQP-pNA): 2390 M^-1s^-1 | degradation of the peptide after 50 minutes (LC-MS, pH 4, 37° C.) [2]: no significant degradation of the peptide was observed | catalytic activity at pH 4 (Suc-APQ-pNA): did not exhibit any significant activity | catalytic activity at pH 4 (Suc-APE-pNA): did not exhibit any significant activity | catalytic efficiency at pH 4 [1]: 1.6 M^-1s^-1 | fold lower level of activity than KumaMax [1]: roughly 350-fold lower level of activity on this substrate than KumaMax | catalytic activity at pH 4 (Suc-APR-pNA): did not exhibit any significant activity
